Test results: US20200239585A1, “MODULATING THE IMMUNE RESPONSE USING ANTIBODY-DRUG CONJUGATES” (Seattle Genetics, Inc., priority 2017, published 2020)

What was measured:
[1] = tested on: efflux pump activity of T cell subsets; assay: rhodamine 123 efflux assay; assay type: cell-based, human; settings: 37° C., 5-hour time-course; FIG. 9D
Description: Sensitivity of cells to many chemotherapies, including MMAE, is influenced by cell-intrinsic drug efflux activity. T cell subsets were evaluated for relative efflux pump activity using a rhodamine 123 efflux assay, following manufacturer's protocol (Chemicon International, Multidrug Resistance Direct Dye Efflux Assay). Enriched T cell populations were loaded with rhodamine 123, incubated in a 37° C. water bath, and were measured for loss of fluorescence over a 5-hour time-course by flow cytometry.

CD30+ cell lines = settings: cited from earlier work
[2] = tested on: Hodgkin disease xenograft; settings: SCID mouse xenograft models of Hodgkin disease; cited from earlier work
[3] = tested on: CD25hi CD127lo T regulatory cells; assay: activated peripheral blood Treg depletion in vitro; assay type: cell-based, human; settings: four separate donors, CD3/CD28 beads+IL-2, 4-5 days; FIG. 3A
Description: (§1) CD25^hi CD127^lo T regulatory cells or CD8^+ T cells, enriched from peripheral blood derived leukoreduction system (LRS) chambers, were plated with CD3/CD28 beads+IL-2 in round-bottom 96-well tissue culture plates for 4-5 days with a titration of BV or control IgG-MMAE. On the final day of the assay, cells were stained as described above (viability dye and αCD30-PE antibody) and evaluated by flow cytometry.

[4] = tested on: human T regulatory cells and CD8+ T cells; assay: xeno-GVHD model, human T cell subtypes in spleen; assay type: in vivo, NSG mice
CD8+ T cells = assay: activated peripheral blood CD8+ T cell depletion in vitro; assay type: cell-based, human; settings: up to 10 μg/ml of BV, CD3/CD28 beads+IL-2, 4-5 days; FIG. 3B
Description: as §1

[5] = tested on: inducible T regulatory cells (iTregs); assay: iTreg viability on in vitro proliferation with a titration of BV or control IgG-MMAE; assay type: cell-based, human; settings: CD3/CD28 beads, 4-5 days
Description: CD4^+ T cells, isolated from healthy donor PBMC (Astarte Biologics, Bothell Wash.) were used to generate inducible T regulatory cells (iTregs). iTreg differentiation was performed over 1-2 weeks in 6-well tissue culture plates at 37° C. Cells were incubated with CD3/CD28 MACS iBead particles (Miltenyi biotec) at a 1:32 bead/cell ratio, in 2-3 ml of X-VIVO 15 media (Lonza) containing 1L-2 (50 ng/ml), TGFβ (50 ng/ml), and a 1:100 dilution of Lipid-Mixture 1 (Sigma-Aldrich). iTregs were evaluated for FoxP3 and CD30 expression by FACS analysis on an Attune NXT flow cytometer (Life Technologies). Following differentiation, individual donor iTreg populations ranged between 20-80% FoxP3^+ and 40-70% CD30^+.
To evaluate the effect of brentuximab vedotin (BV), and anti-CD30 antibody drug-conjugate on iTreg viability, cells were driven to proliferate in vitro in the presence of BV or control antibody drug-conjugate (IgG-MMAE). Briefly, iTregs were mixed with CD3/CD28 beads (8:1) in RPMI 10% FCS and were distributed at approximately 2.0×10^4 cells/well into a 96-well round-bottom plate. A titration of BV or control IgG-MMAE was added to replicate wells at the concentrations listed, for a final volume of 200 μl, and plates were incubated at 37° C. for 4-5 days. […]

[6] = tested on: peripheral blood T cell subsets; assay: immunophenotyping of peripheral blood in classical Hodgkin lymphoma patients after BV; assay type: in vivo, human
From the text: The effects of BV on circulating immune cells has not previously been fully elucidated. Sixty-two patients adult patients with classical Hodgkin lymphoma (cHL) that had relapsed or was refractory to frontline chemotherapy were enrolled in a study to evaluate treatment with BV. Patients were excluded if they previously received prior salvage therapy, including salvage radiotherapy, for refractory cHL; BV or any immuno-oncology therapy affecting the PD-1, CTLA4, or CD137 pathways; and/or allogeneic or autologous stem cell transplant (ASCT). BV was administered to the patients at a dose of 1.8 mg/kg on Day 1 and the patients were assessed on Day 8. Immunophenotyping of peripheral blood by flow cytometry was performed by Q2 Solutions on heparinized whole blood. Cell pellets, resulting from plasma banking, were sent to Adaptive for T Cell Receptor β (TCRβ) sequencing. Peripheral blood mononuclear cells were isolated from CPT tubes, frozen, and then analyzed in batches by Caprion using their intracellular cytokine staining platform following peptide stimulation.

iTregs and CD8+ T cells = assay: iTreg / CD8+ T cell co-culture suppression assay; assay type: cell-based, human; settings: iTregs:CD8+ T cells 1:2, CD3/CD28 beads, four days, increasing concentrations, two donors; FIG. 2C, 2D
Description: As shown in FIG. 2A and FIG. 2B, increasing the iTreg/CD8^+ T cell ratio, for each donor, further abrogated T cell expansion, confirming suppressive function. To evaluate the effect of BV on iTreg suppression in vitro, co-culture suppression assays were performed. iTregs and CD8^+ T cells were mixed at a 1:2 ratio and combined with CD3/CD28 beads. Replicate wells were treated with a titration of BV or control IgG-MMAE. After four days of culture, viable iTregs and CD8^+ T cells were quantified by flow cytometry.

## rhodamine 123 [rhodamine-123]
[1]
  clearance of intracellular rhodamine-123 in CD8+ T cells: rapid clearance
  rhodamine-123 efflux in T regulatory cells among T cell subsets: slowest

## cAC10: chimeric IgG1 monoclonal antibody that specifically binds CD30
CD30+ cell lines
  growth of CD30+ cell lines in vitro: induces growth arrest
[2]
  antitumor activity: pronounced antitumor activity

B1: brentuximab vedotin (conjugate)
VH: QIQLQQSGPEVVKPGASVKISCKASGYTFTDYYITWVKQKPGQGLEWIGWIYPGSGNTKYNEKFKGKATLTVDTSSSTAFMQLSSLTSEDTAVYFCANYGNYWFAYWGQGTQVTVSA
VL: DIVLTQSPASLAVSLGQRATISCKASQSVDFDGDSYMNWYQQKPGQPPKVLIYAASNLESGIPARFSGSGSGTDFTLNIHPVEEEDAATYYCQQSNEDPWTFGGGTKLEIK
[3]
  viable CD30+ Treg numbers: dose-dependent reduction
[4]; single i.p. 3 mg/kg on day 5, spleens on day 12, compared to PBS alone, FIG. 4A
  human T regulatory cells in the spleen: significantly reduced
[4]; single i.p. 3 mg/kg on day 5, spleens on day 12, FIG. 4B
  splenic CD8+ T cells: unaffected by BV treatment with a trend toward increased numbers
[4]; single i.p. 3 mg/kg on day 5, spleens on day 12, FIG. 4C
  CD8+ T cell/Treg ratio in vivo: increased
CD8+ T cells
  depletion of CD30+ CD8+ T cells: did not deplete
[5]; FIG. 1B
  numbers of CD30+ iTregs: enhanced depletion
[5]; five separate donors, FIG. 1A
  total viable iTreg numbers: dose-dependent reduction
[6]; 1.8 mg/kg on Day 1, assessed on Day 8
  reduction of CD30+ regulatory T cells compared to reduction of other CD30+ T helper cells: more significantly
[6]; 1.8 mg/kg on Day 1, assessed on Day 8, peripheral blood, FIG. 5
  T helper cell subset populations including regulatory T cells: reduction
[6]; 1.8 mg/kg on Day 1, assessed on Day 8, FIG. 7
  number of CD30-expressing regulatory T cells in the peripheral blood: significantly reduced
[6]; single treatment, versus baseline, FIG. 7
  number of CD30+ T regulatory cells as compared to CD30− T regulatory cells: reduced
iTregs and CD8+ T cells
  CD8+ T cell accumulation in co-culture: augmented
  viable iTregs in co-culture: selectively reduced
